Measurements from patent publication US20240301052A1 (LANOVA MEDICINES DEVELOPMENT, published 2024).
Like-named read-outs stand apart in the source and are kept apart here.

B1: 63A11D5B4.p1.z5 hIgG1 (antibody, V domains shown)
VH: QVQLVQSGAEVKKPGASVKVSCKTSGYTFITYNMHWVRQAPGQGLEWIGAIYPGSGDTSYNQKFKGRVTMTADTSTSTVYMELSSLRSEDTAVYYCSISTIITTGAVDYWGQGTLVTVSS
VL: DIQMTQSPSSLSASVGDRVTITCKASQDVGTAVAWYQQKPGKVPKLLIYWTSTRHTGVPSRFSGSGSGTDFTLTISSLQPEDVATYYCQQYSRIPLTFGGGTKVEIK
notes: humanized hIgG1
B2: 63A11D5B4.p1.z15 hIgG1 (antibody, V domains shown)
VH: QVQLQQSGAEVVKPGASVKMSCKTSGYTFITYNMHWVKQAPGQGREWIGAIYPGSGDTSYNQKFKGRATLTADKSTSTAYMELSSLRSEDTAVYYCSISTIITTGAVDYWGQGTSVTVSS
VL: DIQMTQSPSSLSTSVGDRVTITCKASQDVGTAVAWYQQKPGQSPKLLIYWTSTRHTGVPDRFSGSGSGTDFTLIIRSLQPEDVATYFCQQYSRIPLTFGGGTKVEIK
notes: humanized hIgG1
B3: 30H9B8F9.p1.z13 hIgG1 (antibody, V domains shown)
VH: QVQLVQSGAEVVKPGASVKMSCKTSGYTFTTNNMHWVKQAPGQGLEWIGAIYPGSGATAYNQKFKGRATLTADKSTSTAYMELSSLRSEATAVYYCARGMYGHGAMDYWGQGTSVTVSS
VL: DIQLTQSPSFLSASVGDRVTITCKASQDVGTAVAWYQQKPGKAPKLLIYWATTRHSGVPSRFSGSGSGTEFTLTISSLQPEDFATYYCQQYSSNPLTFGQGTKLEIK
notes: humanized hIgG1
B4: 30H9B8F9.p1.z6 hIgG1 (antibody, V domains shown)
VH: QVQLVQSGAEVKKPGASVKVSCKTSGYTFTTNNMHWVRQAPGQGLEWIGAIYPGSGATAYNQKFKGRVTMTADTSTSTVYMELSSLRSEDTAVYYCARGMYGHGAMDYWGQGTLVTVSS
VL: DIQLTQSPSFLSASVGDRVTITCKASQDVGTAVAWYQQKPGKSPKLLIYWATTRHSGVPDRFSGSGSGTEFTFTISSLQPEDFATYFCQQYSSNPLTFGQGTKLEIK
notes: humanized hIgG1
B5: 30H9B8F9.p1.z9 hIgG1 (antibody, V domains shown)
VH: QVQLVQSGAEVVKPGASVKVSCKTSGYTFTTNNMHWVRQAPGQGLEWIGAIYPGSGATAYNQKFKGRVTLTADKSTSTAYMELSSLRSEATAVYYCARGMYGHGAMDYWGQGTLVTVSS
VL: DIQLTQSPSFLSASVGDRVTITCKASQDVGTAVAWYQQKPGKAPKLLIYWATTRHSGVPSRFSGSGSGTEFTLTISSLQPEDFATYYCQQYSSNPLTFGQGTKLEIK
notes: humanized hIgG1

Experiments:
human SLC34A2 [1] = target: T1, human SLC34A2 (human, UniProt O95436 1-690); test: FACS, OVCAR3 cells
T1 construct: whole, on cells; also called human solute carrier 34 A2; NaPi2b
T1 sequence (looked up): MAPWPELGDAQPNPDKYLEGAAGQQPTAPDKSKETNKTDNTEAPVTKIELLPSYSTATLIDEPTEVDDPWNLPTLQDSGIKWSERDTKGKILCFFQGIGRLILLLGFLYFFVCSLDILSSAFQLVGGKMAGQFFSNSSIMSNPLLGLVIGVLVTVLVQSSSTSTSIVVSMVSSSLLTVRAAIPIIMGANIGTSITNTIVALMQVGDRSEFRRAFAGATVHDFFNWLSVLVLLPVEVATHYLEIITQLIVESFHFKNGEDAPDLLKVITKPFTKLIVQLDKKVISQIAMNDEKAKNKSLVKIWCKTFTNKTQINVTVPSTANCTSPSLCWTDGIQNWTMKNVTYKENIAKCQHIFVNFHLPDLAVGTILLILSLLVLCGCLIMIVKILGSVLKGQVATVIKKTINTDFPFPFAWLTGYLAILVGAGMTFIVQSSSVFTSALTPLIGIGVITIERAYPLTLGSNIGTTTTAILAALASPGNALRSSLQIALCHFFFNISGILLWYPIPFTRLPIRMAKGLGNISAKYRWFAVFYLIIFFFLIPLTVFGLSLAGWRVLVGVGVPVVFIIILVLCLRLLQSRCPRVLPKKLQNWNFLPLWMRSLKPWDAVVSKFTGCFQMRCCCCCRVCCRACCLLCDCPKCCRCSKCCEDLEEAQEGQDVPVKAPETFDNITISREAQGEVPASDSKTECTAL
Protocol: (§1) In another testing, cell based binding of hu Abs on human SLC34A2 expressing cells were assessed using flow cytometry. Briefly, the HEK293/H_SLC34A2, OVCAR3 and RMG-1 cells were incubated with hu Abs. After incubation at 4° C. for 60 minutes, the cells were washed with FACS buffer twice, then stained with fluorescent conjugated secondary antibody at 4° C. for 30 minutes. After that the cells were washed twice and analyzed by flow cytometry.

human SLC34A2 [2] = target: T1, human SLC34A2; test: FACS, HEK293/human SLC34A2 cells
Protocol: as §1

Rhesus SLC34A2 = target: T2, Rhesus SLC34A2 (Rhesus, UniProt F7HDA3 1-690); test: FACS, HEK293/Rhesus SLC34A2 cells
T2 construct: whole, on cells
T2 sequence: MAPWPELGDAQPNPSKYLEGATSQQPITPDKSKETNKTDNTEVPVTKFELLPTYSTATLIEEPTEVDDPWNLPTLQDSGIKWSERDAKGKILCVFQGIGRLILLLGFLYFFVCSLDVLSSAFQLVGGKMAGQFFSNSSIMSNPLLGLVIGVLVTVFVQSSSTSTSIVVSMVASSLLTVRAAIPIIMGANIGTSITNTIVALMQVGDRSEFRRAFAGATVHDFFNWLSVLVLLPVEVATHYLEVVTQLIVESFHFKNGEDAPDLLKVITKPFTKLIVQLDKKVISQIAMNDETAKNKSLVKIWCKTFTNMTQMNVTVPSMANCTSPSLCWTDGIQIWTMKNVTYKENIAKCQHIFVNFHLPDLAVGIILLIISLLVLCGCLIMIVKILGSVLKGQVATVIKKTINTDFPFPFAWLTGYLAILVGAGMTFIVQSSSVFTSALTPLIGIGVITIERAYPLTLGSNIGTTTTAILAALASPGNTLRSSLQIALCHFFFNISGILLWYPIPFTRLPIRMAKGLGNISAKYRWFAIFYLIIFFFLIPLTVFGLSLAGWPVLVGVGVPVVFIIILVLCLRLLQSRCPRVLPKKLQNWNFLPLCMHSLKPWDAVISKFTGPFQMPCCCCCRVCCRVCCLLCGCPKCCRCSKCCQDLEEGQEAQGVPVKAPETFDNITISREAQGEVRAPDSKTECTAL

human SLC34A2 [3] = target: T1, human SLC34A2; test: cell-based or functional assay
human SLC34A2 [4] = target: T1, human SLC34A2; test: FACS, OVCAR3 cells; remark: listed apart in the source
human SLC34A2 [5] = target: T1, human SLC34A2; test: FACS, RMG-1 cells
Protocol: as §1

human SLC34A2 [6] = target: T1, human SLC34A2; test: FACS, OVCAR3 cells; remark: listed apart in the source
Protocol: The binding of these humanized antibodies to OVCAR3 cells was evaluated as described above, and the results are shown in FIG. 12A-D and Tables 16A-D.

| Binder | EC50 (human SLC34A2 [1]) [nM] | EC50 (human SLC34A2 [2]) [nM] | Top (human SLC34A2 [2]) [MFI] | EC50 (Rhesus SLC34A2) [nM] | Top (MFI) (Rhesus SLC34A2) | ADCC reporter EC50 (human SLC34A2 [3]) [nM] | ADCC reporter Top (MFI) (human SLC34A2 [3]) | EC50 (human SLC34A2 [4]) [nM] | Top (MFI) (human SLC34A2 [4]) | EC50 (human SLC34A2 [5]) [nM] | Top (human SLC34A2 [5]) [MFI] | EC50 (human SLC34A2 [6]) [nM] | Top (MFI) (human SLC34A2 [6]) |
| --- | --- | --- | --- | --- | --- | --- | --- | --- | --- | --- | --- | --- | --- |
| B1 | 13.5 | 4.8 | 35900 | 3.9 | 11100 | 0.95 | 116000 | 13.5 | 28200 | 36.2 | 11800 | – | – |
| B2 | 9.23 | 7.12 | 37000 | 4.7 | 10300 | 1.47 | 122000 | 9.23 | 30200 | 40.6 | 13200 | – | – |
| B3 | 0.62 | 1.05 | 33000 | 0.8 | 15600 | 0.96 | 143000 | – | – | 0.73 | 10900 | 1.03 | 28400 |
| B4 | 1.1 | 1.94 | 33600 | 1.1 | 15100 | 1.25 | 135000 | – | – | 1.78 | 10400 | 1.62 | 28400 |
| B5 | 1.08 | 1.81 | 34200 | 0.9 | 16300 | 1.53 | 145000 | – | – | 1.4 | 11600 | 1.59 | 29400 |
